Where two headings read alike, the source gives them in different places.

In experiment [1] the target is T1, Human ROR1 (receptor tyrosine kinase-like orphan receptor 1) (human, UniProt Q01973 30-937).
T1 construct: also called hROR1; K562/ROR1
As to the kind of experiment: competition with Myc-R12 scFv on ROR1/K562 cells; predicted plateau relative to R12 scFv = 100%. The procedure: (§1) Assays also were performed to assess competition of the clones with the reference antibody (R12 scFv), for binding to ROR1-expressing cells. VH clones were titrated against 2 nM Myc-R12 on ROR1/K562 cells and competition assessed with an anti-Myc-Alexa647 secondary antibody, and the half maximal inhibitory concentration (IC₅₀) determined for respective clones.
(§2) Additionally, percent (%) maximum (max) binding to ROR1-expressing cells and % max competition with the reference antibody (R12 scFv) were calculated. Percent max binding and competition values were calculated based on predicted plateaus (measured by Prism® using four parameter non-linear regression), relative to values for R12 scFv binding and inhibition, respectively, assigned as 100% in each study.

Experiment [2] has as its target T1, Human ROR1 (receptor tyrosine …). As to the kind of experiment: flow cytometry on ROR1-expressing cells; predicted plateau relative to R12 scFv = 100%. The procedure:
as §2

Experiment [3] shares this target. As to the kind of experiment: flow cytometry competition, competitor 2 nM Myc-R12 scFv on ROR1/K562 cells (n = 1). The protocol: as §1
Experiment [4] shares this target. The experiment is described as follows: flow cytometry on ROR1-expressing K562 and CHOK1 cells (n = 1). On the technique in general: A flow cytometer gives signals particle by particle.
Experiment [5] shares this target. As to the kind of experiment: flow cytometry competition, competitor R12 scFv on ROR1-expressing cells (n = 1). The procedure:
as §1
(§3) Assays also were performed to assess competition (measured as half maximal inhibitory concentration (IC₅₀)) of the clones with the R12 scFv reference antibody for binding to ROR1-expressing cells, as described in Example 1. Percent (%) max ROR1 and % max competition, as compared to the R12 scFv reference antibody, were determined as described in Example 1.

Experiment [6] shares this target. The experiment is described as follows: competition with R12 scFv on ROR1-expressing cells; predicted plateau relative to R12 scFv = 100%. The protocol: as §2, §3
For experiment [7] the target is unchanged. As to the kind of experiment: flow cytometry on ROR1-expressing cells; predicted plateau relative to R12 scFv = 100%. The procedure:
as §2, §3
This is another data set of the same source.

Experiment [8] shares this target. The experiment is described as follows: flow cytometry on ROR1-expressing K562 and CHOK1 cells (n = 1). The source holds these as a separate data set.
Another experiment has as its target T2, Mouse ROR1 (mouse, UniProt Q9Z139 30-937).
T2 construct: also called mROR1; K562/mouse ROR1
The experiment is described as follows: inferred from IFN-gamma release of CAR T cells on K562/mouse ROR1 cells. The procedure:
Cytokine release was assessed following incubation of the CAR-expressing cells with either K562/human ROR1 (hROR1) or K562/mouse ROR1 (mROR1) antigen-expressing cells. Transduced CD8+ T cells were co-cultured with antigen-expressing cells at a single effector to target (E:T). The co-cultured cells were incubated for about 24 hours, and then supernatants were collected for measurement of IFN-γ using a cytokine immunoassay.

T1 sequence (Q01973 30-937): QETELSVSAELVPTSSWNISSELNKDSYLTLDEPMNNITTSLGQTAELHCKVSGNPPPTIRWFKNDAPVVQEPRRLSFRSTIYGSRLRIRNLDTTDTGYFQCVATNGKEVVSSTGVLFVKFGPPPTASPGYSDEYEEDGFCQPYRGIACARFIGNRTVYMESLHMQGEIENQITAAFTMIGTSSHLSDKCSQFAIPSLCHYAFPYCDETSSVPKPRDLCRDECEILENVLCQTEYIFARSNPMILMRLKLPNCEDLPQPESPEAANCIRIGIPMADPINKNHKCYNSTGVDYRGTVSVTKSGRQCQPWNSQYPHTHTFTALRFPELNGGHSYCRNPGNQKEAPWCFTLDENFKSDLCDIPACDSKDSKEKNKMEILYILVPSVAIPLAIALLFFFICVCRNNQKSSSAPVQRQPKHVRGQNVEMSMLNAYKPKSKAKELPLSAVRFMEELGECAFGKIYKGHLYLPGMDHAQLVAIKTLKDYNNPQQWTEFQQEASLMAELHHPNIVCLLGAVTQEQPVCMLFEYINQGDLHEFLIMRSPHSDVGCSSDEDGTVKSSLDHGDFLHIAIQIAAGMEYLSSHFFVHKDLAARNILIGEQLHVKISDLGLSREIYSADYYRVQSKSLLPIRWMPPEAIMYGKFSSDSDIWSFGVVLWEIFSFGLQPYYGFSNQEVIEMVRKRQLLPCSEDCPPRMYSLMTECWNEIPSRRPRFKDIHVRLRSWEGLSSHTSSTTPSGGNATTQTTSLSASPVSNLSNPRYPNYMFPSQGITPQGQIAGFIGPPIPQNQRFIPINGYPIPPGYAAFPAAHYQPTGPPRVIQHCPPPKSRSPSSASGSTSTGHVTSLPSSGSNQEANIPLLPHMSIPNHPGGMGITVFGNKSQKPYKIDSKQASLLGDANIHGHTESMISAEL
T2 sequence (Q9Z139 30-937): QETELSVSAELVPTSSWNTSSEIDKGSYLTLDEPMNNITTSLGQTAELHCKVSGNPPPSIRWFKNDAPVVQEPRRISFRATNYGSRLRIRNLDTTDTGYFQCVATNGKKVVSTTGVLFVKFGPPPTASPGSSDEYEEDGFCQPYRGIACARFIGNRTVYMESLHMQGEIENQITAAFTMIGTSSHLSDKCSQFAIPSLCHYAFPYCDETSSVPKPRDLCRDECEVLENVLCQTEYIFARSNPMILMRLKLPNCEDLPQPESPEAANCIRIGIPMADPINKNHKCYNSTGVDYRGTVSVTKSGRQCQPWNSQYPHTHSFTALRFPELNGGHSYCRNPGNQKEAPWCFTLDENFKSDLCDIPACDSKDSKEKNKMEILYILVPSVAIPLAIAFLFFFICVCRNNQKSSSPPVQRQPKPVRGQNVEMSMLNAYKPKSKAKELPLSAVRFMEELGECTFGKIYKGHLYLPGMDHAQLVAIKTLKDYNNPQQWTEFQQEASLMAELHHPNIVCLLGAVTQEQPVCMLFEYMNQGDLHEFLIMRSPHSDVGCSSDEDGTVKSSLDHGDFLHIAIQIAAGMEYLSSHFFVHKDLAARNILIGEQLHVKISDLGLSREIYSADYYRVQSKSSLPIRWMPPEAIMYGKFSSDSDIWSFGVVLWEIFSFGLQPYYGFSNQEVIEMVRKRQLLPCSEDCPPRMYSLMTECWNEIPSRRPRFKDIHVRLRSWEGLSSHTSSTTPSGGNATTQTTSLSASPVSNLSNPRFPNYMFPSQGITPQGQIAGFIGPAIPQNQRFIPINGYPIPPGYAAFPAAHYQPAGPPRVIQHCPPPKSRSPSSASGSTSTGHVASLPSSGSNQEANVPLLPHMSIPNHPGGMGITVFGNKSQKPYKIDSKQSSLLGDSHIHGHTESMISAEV

B1: Clone V397 (VHH)
VHH: QITLKESGGGLVQPGGSLRLSCAASGFTFSNAWMSWVRQAPGKGLEWVGRIKSKTDGGTTDYAAPLKGRFTISRDDSKNTLYLQMNSLKTEDTAVYYCARAKGLWFGESYYFDYWGQGTLVTVSS
notes: human VH-only single-domain antibody, no VL
The IC50 is the concentration that gives 50% inhibition. As a reminder, the EC50 is the concentration giving half of the maximal effect. For B1, the “% Max Competition” value in experiment [1] is 18%. The “% Max Binding” value in experiment [2] was 18%. The same molecule had an IC50 in [3] of 25.2 nM. The molecule also showed an EC50 in experiment [4] of 49.7 nM.

B2: Clone V312 (VHH)
VHH: EVQLVESGGGLVKPRGSLRLSCAASGFTFSNAWMSWVRQAPGKGLEWVGRIKSKTDGGTTDYAAPVKGRFTISRDDSKNTLYLQMNSLKTEDTAVYYCARTSRGRFLEWLLFDYWGQGTLVTVSS
notes: as for B1
Turning to B2, the “% Max Competition” value in experiment [1] was 19%. In experiment [2], the “% Max Binding” value is 29%. Moreover, the IC50 in [3] worked out at 5.6 nM. In experiment [4], this molecule yielded an EC50 of 23.7 nM.

B3: Clone 305 scFv (scFv)
scFv: EVQLVESGGGLVQPGRSLRLSCTASGFTFGDYAMSWVRQAPGKGLEWVSSISGSGRSTDHADYVKGRFTISRDNSKNTVYLQMNRLRAEDTAVYYCAKVSNYEYYFDYWAQGTLVTVSSQSVLTQPPSVSVAPGQTARITCGGNNIGSTSVHWFQQKPGQAPVLVVYDDSDRPSGIPERFSGSNSGNTATLTISRVEAGDEADYYCQVWDNDSDHRVFGGGTKLTVL
For B3, the IC50 in experiment [5] was determined as 62.5 nM. Moreover, the “% Max Competition” value in experiment [6] is 97%. For the same molecule, in experiment [7], the “% Max Binding” value was 86%. This molecule registered an EC50 in [8] of 5.1 nM.

B4: Clone V128 (VHH)
VHH: EVQLLESGGGVVQPGGSLRLSCAASGFTFDTFWMSWVRQAPGKGLEWVGRIKSKTDGGTTDYAAPVKGRFTISRDDSKNTLYLQMNSLKTEDTAVYYCARDFGRWSYYFDYWSQGTLVTVSS
notes: as for B1
B4 gave an IC50 in experiment [3] greater than 200 nM.

B5: Clone 366 scFv (scFv)
scFv: EVQLVESGGGLVQPGRSLRLSCTASGFTFGDYAMSWVRQAPGKGLEWVSSISGSGRSTDHADYVKGRFTISRDNSKNTVYLQMNRLRAEDTAVYYCAKVSNYEYYFDYWAQGTLVTVSSQSVLTQPPSVPGTPGQRVTITCSGSRFNIGSNTVNWYQQLPGTAPKLLIYSNNQRPSGVPDRFSGSKSGTSASLAISGLQSEDEADYYCAAWDDSLNGYVFGTGTKLTVL
notes: Printed without a linker
Turning to B5, the IC50 in [5] was 53.9 nM. The “% Max Competition” value in [6] was 71%. The “% Max Binding” value in experiment [7] was 104%. The concentration for a half-maximal effect (EC50) in [8] came to 10 nM.

B6: Clone V420 (VHH)
VHH: QVQLVESGGGLVQPGGSLRLSCAASGFTFSSYWMSWVRQAPGKGLEWVANIKQDGSEKYYVDSVKGRFTISRDNAKNSLYLQMNSLRAEDTAVYYCARVNGGEYYFDYWGQGTLVTVSS
notes: as for B1
Take B6: the “% Max Competition” value in experiment [1] was 58%. Moreover, the “% Max Binding” value in [2] was 74%. The molecule also came in with an IC50 in experiment [3] of 71.5 nM. In experiment [4], the EC50 was found to be 8 nM.

B7: Clone V282 (VHH)
VHH: EVQLVESGGGLVQPGGSLRLSCAASGFTFSSYWMSWVRQAPGKGLEWVANIKQDGSEKYYVDSVKGRFTISRDNAKNSLYLQMNSLRAEDTAVYYCARVRGSEYYFDYWGQGTLVTVSS
notes: as for B1
With B7, the “% Max Competition” value in experiment [1] is 48%. The “% Max Binding” value in experiment [2] is 64%. The molecule further yielded an IC50 in experiment [3] of 94.3 nM. The molecule further had an EC50 in experiment [4] of 13.1 nM.

B8: Clone V331 (VHH)
VHH: QVQLQQWGAGLLKPSETLSLTCAVYGGSFSGYYWSWIRQPPGKGLEWIGKINHSGSTNYNPSLKSRVTISVDTSKNQFSLKLSSVTAADTAVYYCARGQIAAHVWGWFDPWGQGTLVTVSS
notes: as for B1
Consider B8, for which the “% Max Competition” value in experiment [1] was 31%. Further, the “% Max Binding” value in [2] was 70%. This molecule also yielded a concentration for half-maximal inhibition (IC50) in experiment [3] of 32.4 nM. This molecule also had an EC50 in experiment [4] of 18.8 nM.

B9: CAR containing Clone 298 scFv (VH-VL) (other)
chain: EVQLVESGGGLVQPGRSLRLSCTASGFTFGDYAMSWVRQAPGKGLEWVSSISGSGRSTDHADYVKGRFTISRDNSKNTVYLQMNRLRAEDTAVYYCAKVSNYEYYFDYWAQGTLVTVSSGGGGSGGGGSGGGGSEIVLTQSPSVSVAPGQTARITCGGSNIGSESVNWYQWKSGQVPVLVVSDTTDRPSGIPGRFTGTRSGTTATLTISGVEAGDEADYHCQVWDDTGDHPVFGGGTKLTVL
notes: Chimeric antigen receptor expressed on primary human CD8+ T cells; tEGFR marker is split off by T2A; also called 298 CAR; not shown: Ig-derived hinge only spacer, human CD28-derived transmembrane domain, human 4-1BB-derived intracellular signaling domai
Consider B9, for which, in the experiment with Mouse ROR1, the binding result is “binds”.

B10: Clone 298 scFv (scFv)
scFv: EVQLVESGGGLVQPGRSLRLSCTASGFTFGDYAMSWVRQAPGKGLEWVSSISGSGRSTDHADYVKGRFTISRDNSKNTVYLQMNRLRAEDTAVYYCAKVSNYEYYFDYWAQGTLVTVSSGGGGSGGGGSGGGGSEIVLTQSPSVSVAPGQTARITCGGSNIGSESVNWYQWKSGQVPVLVVSDTTDRPSGIPGRFTGTRSGTTATLTISGVEAGDEADYHCQVWDDTGDHPVFGGGTKLTVL
As to B10, in experiment [5], the 50% inhibitory concentration (IC50) worked out at 41.3 nM. For the same molecule, the “% Max Competition” value in experiment [6] was 88%. For the same molecule, the “% Max Binding” value in [7] was 96%. In experiment [8], the EC50 was found to be 5.9 nM.

B11: Clone V278 (VHH)
VHH: QITLKESGGGLVQPGGSLRLSCAASGFTFSSYAMSWVRQAPGKGLEWVSAISGSGGSTYYADSVKGRFTISRDNSKNTLYLQMNSLRAEDTAVYYCAKERSRWGDNWFDPWGQGTLVTVSS
notes: as for B1
Regarding B11, the “% Max Binding” value in experiment [2] was 22%. This molecule showed an EC50 in [4] of 31.5 nM.

B12: CAR containing Clone 83B scFv (VH-VL) (other)
chain: QVQLVQSGAEVKKPGASVKVSCKASGYTFTSYYMHWVRQAPGQGLEWMGIINPNGGSTSYAQKFQGRVTMTRDTSTSTVYMELSSLRSEDTAVYYCARDSSYDAFDIWGQGTMVTVSSGGGGSGGGGSGGGGSAIQLTQSPSTLSASVGDRVTITCQASQDISNYLNWYQQKPGKAPKLLINDASYLETGVPSRFSGSGSGTDFTLTISSLQPEDIATYYCQQYESLPYTFGQGTKLEIK
notes: Chimeric antigen receptor expressed on primary human CD8+ T cells; tEGFR marker is split off by T2A; also called 83B CAR; not shown: Ig-derived hinge only spacer, human CD28-derived transmembrane domain, human 4-1BB-derived intracellular signaling domai
B12: the binding result in the experiment with Mouse ROR1 is on record as “binds”.

B13: Clone 83B scFv (scFv)
scFv: QVQLVQSGAEVKKPGASVKVSCKASGYTFTSYYMHWVRQAPGQGLEWMGIINPNGGSTSYAQKFQGRVTMTRDTSTSTVYMELSSLRSEDTAVYYCARDSSYDAFDIWGQGTMVTVSSGGGGSGGGGSGGGGSAIQLTQSPSTLSASVGDRVTITCQASQDISNYLNWYQQKPGKAPKLLINDASYLETGVPSRFSGSGSGTDFTLTISSLQPEDIATYYCQQYESLPYTFGQGTKLEIK
notes: De-glycosylation variant of clone 83 (S to N at VH position 53, Kabat)
In turn, B13 had a concentration for half-maximal inhibition (IC50) in experiment [5] of 15 nM. The “% Max Competition” value in experiment [6] was 103%. Besides, the “% Max Binding” value in experiment [7] is 140%. The molecule further gave an EC50 in [8] of 6.4 nM.

B14: Clone V163 (VHH)
VHH: QVQLVESGGGLVKPGGSLRLSCAASGFTFSNAWMSWVRQAPGKGLEWVGRIKSKTDGGTTDYAAPVKGRFTISRDDSKNTLYLQMNSLKTEDTAVYYCARQGDSSSWYVEVYYFDYWGQGTLVTVSS
notes: as for B1
In the case of B14, the “% Max Competition” value in [1] is 58%. Moreover, the “% Max Binding” value in [2] was 122%. The molecule further came in with an IC50 in experiment [3] of 154 nM. The same molecule showed an EC50 in experiment [4] of 92.9 nM.

B15: Clone 350 scFv (scFv)
scFv: EVQLVESGGGLVQPGRSLRLSCTASGFTFGDYAMSWVRQAPGKGLEWVSSISGSGRSTDHADYVKGRFTISRDNSKNTVYLQMNRLRAEDTAVYYCAKVSNYEYYFDYWAQGTLVTVSSQPVLTQPHSVSESPGKTVTISCTRSSGSIASNYVQWYQQRPGSAPTTVIYEDNQRPSGVPDRFSGSIDSSSNSASLTISGLKTEDEADYYCQSYDSSNHVFGTGTKLTVL
On to B15, for which the half-inhibitory concentration (IC50) in experiment [5] came out at 49.1 nM. Moreover, the “% Max Competition” value in [6] was 80%. Besides, the “% Max Binding” value in experiment [7] is 137%. This molecule also had an EC50 in [8] of 22.9 nM.

B16: Clone V181 (VHH)
VHH: QITLKESGGGLVKPGRSLRLSCTASGFTFGDYAMSWFRQAPGKGLEWVGFIRSKAYGGTTEYAASVKGRFTISRDDSKSIAYLQMNSLKTEDTAVYYCAKDFEVREAHLSYFDYWGQGTLVTVSS
notes: as for B1
In the case of B16, in experiment [1], the “% Max Competition” value was 76%. Besides, in [3], the IC50 was greater than 200 nM.

The values above are taken from patent publication US20160208018A1 (JUNO THERAPEUTICS, published 2016).
